“And” between values parts separate entries of the source, which are not always exact repeats. Equal entries are not always repeated.
Assays:
[1] = biological target: G5C (Gemin5 841-1508) wild type (Homo sapiens) (UniProt Q8TEQ6); assay: fluorescence polarization; conditions: EMSA: 20 mM Tris-HCl pH 7.5, 100 mM NaCl, 1 h on ice, 0.35 uM RNA; FP: 20 mM Tris-HCl pH 7.5, 150 mM NaCl, 10 nM RNA (40 nM U7), protein 0-41 uM, temperature …
G5C A951E (Homo sapiens) = assay: fluorescence polarization; conditions: EMSA: 20 mM Tris-HCl pH 7.5, 100 mM NaCl, 1 h on ice, 0.35 uM RNA; FP: 20 mM Tris-HCl pH 7.5, 150 mM NaCl, 10 nM RNA (40 nM U7), protein 0-41 uM, temperature …
G5C M4 (Homo sapiens) = assay: fluorescence polarization; conditions: EMSA: 20 mM Tris-HCl pH 7.5, 100 mM NaCl, 1 h on ice, 0.35 uM RNA; FP: 20 mM Tris-HCl pH 7.5, 150 mM NaCl, 10 nM RNA (40 nM U7), protein 0-41 uM, temperature …
[2] = biological target: the molecule itself; assay: SEC; size-exclusion chromatography of purified G5C wild type and mutants against a molecular weight marker; self-association
[3] = biological target: the molecule itself; assay: SEC-MALS; Superose 6 Increase 10/300 GL coupled to DAWN HELEOS 8+; 100 ul at 1 mg/ml; 20 mM Tris-HCl pH 7.5, 330 mM NaCl; self-association

Molecule	stoichiometry N [2]	other results
SL1 RNA, FAM (FP)		Kd [1]: 6.5 µM; Kd (G5C A951E (Homo sapiens)): 32 µM; Kd (G5C M4 (Homo sapiens)): 138 µM
G5C K1363A/K1436A/R1437A/R1444A/K1492A mutant (domain or fragment, human, UniProt Q8TEQ6 841-1508, looked up, Gemin5, human, residues 841-1508 with K1363A, K1436A, R1437A, R1444A and K1492A; also called M5; source: E. coli BL21 (DE3), purified in the same way as wild-type G5C; not shown: His6, N-terminal, cleaved; copies: 10) KKRKARSLLPLSTSLDHRSKEELHQDCLVLATAKHSRELNEDVSADVEERFHLGLFTDRATLYRMIDIEGKGHLENGHPELFHQLMLWKGDLKGVLQTAAERGELTDNLVAMAPAAGYHVWLWAVEAFAKQLCFQDQYVKAASHLLSIHKVYEAVELLKSNHFYREAIAIAKARLRPEDPVLKDLYLSWGTVLERDGHYAVAAKCYLGATCAYDAAKVLAKKGDAASLRTAAELAAIVGEDELSASLALRCAQELLLANNWVGAQEALQLHESLQGQRLVFCLLELLSRHLEEKQLSEGKSSSSYHTWNTGTEGPFVERVTAVWKSIFSLDTPEQYQEAFQKLQNIKYPSATNNTPAKQLLLHICHDLTLAVLSQQMASWDEAVQALLRAVVRSYDSGSFTIMQEVYSAFLPDGCDHLRDKLGDHQSPATPAFKSLEAFFLYGRLYEFWWSLSRPCPNSSVWVRAGHRTLSVEPSQQLDTASTEETDPETSQPEPNRPSELDLRLTEEGERMLSTFKELFSEAHASLQNSQRTVAEVQETLAEMIRQHQKSQLCKSTANGPDKNEPEVEAEQPLCSSQSQCKEEKNEPLSLPELTAALTEANQAMAKFPESIKAWPFPDVLECCLVLLLIRSHFPGCLAQEMQQQAQELLQAYGNTKTYRRHCQTFCM	10	
G5C L1469H single mutant (domain or fragment, human, UniProt Q8TEQ6 841-1508, looked up, Gemin5, human, residues 841-1508 with L1469H; also called M3; source: E. coli BL21 (DE3), purified in the same way as wild-type G5C; not shown: His6, N-terminal, cleaved; copies: 10) KKRKARSLLPLSTSLDHRSKEELHQDCLVLATAKHSRELNEDVSADVEERFHLGLFTDRATLYRMIDIEGKGHLENGHPELFHQLMLWKGDLKGVLQTAAERGELTDNLVAMAPAAGYHVWLWAVEAFAKQLCFQDQYVKAASHLLSIHKVYEAVELLKSNHFYREAIAIAKARLRPEDPVLKDLYLSWGTVLERDGHYAVAAKCYLGATCAYDAAKVLAKKGDAASLRTAAELAAIVGEDELSASLALRCAQELLLANNWVGAQEALQLHESLQGQRLVFCLLELLSRHLEEKQLSEGKSSSSYHTWNTGTEGPFVERVTAVWKSIFSLDTPEQYQEAFQKLQNIKYPSATNNTPAKQLLLHICHDLTLAVLSQQMASWDEAVQALLRAVVRSYDSGSFTIMQEVYSAFLPDGCDHLRDKLGDHQSPATPAFKSLEAFFLYGRLYEFWWSLSRPCPNSSVWVRAGHRTLSVEPSQQLDTASTEETDPETSQPEPNRPSELDLRLTEEGERMLSTFKELFSEKHASLQNSQRTVAEVQETLAEMIRQHQKSQLCKSTANGPDKNEPEVEAEQPLCSSQSQCKEEKNEPLSLPELTKRLTEANQRMAKFPESIKAWPFPDVLECCLVLLHIRSHFPGCLAQEMQQQAQELLQKYGNTKTYRRHCQTFCM	10	
G5C L1381D/M1384D/I1385D triple mutant (domain or fragment, human, UniProt Q8TEQ6 841-1508, looked up, Gemin5, human, residues 841-1508 with L1381D, M1384D and I1385D; also called M2; source: E. coli BL21 (DE3), purified in the same way as wild-type G5C; not shown: His6, N-terminal, cleaved) KKRKARSLLPLSTSLDHRSKEELHQDCLVLATAKHSRELNEDVSADVEERFHLGLFTDRATLYRMIDIEGKGHLENGHPELFHQLMLWKGDLKGVLQTAAERGELTDNLVAMAPAAGYHVWLWAVEAFAKQLCFQDQYVKAASHLLSIHKVYEAVELLKSNHFYREAIAIAKARLRPEDPVLKDLYLSWGTVLERDGHYAVAAKCYLGATCAYDAAKVLAKKGDAASLRTAAELAAIVGEDELSASLALRCAQELLLANNWVGAQEALQLHESLQGQRLVFCLLELLSRHLEEKQLSEGKSSSSYHTWNTGTEGPFVERVTAVWKSIFSLDTPEQYQEAFQKLQNIKYPSATNNTPAKQLLLHICHDLTLAVLSQQMASWDEAVQALLRAVVRSYDSGSFTIMQEVYSAFLPDGCDHLRDKLGDHQSPATPAFKSLEAFFLYGRLYEFWWSLSRPCPNSSVWVRAGHRTLSVEPSQQLDTASTEETDPETSQPEPNRPSELDLRLTEEGERMLSTFKELFSEKHASLQNSQRTVAEVQETDAEDDRQHQKSQLCKSTANGPDKNEPEVEAEQPLCSSQSQCKEEKNEPLSLPELTKRLTEANQRMAKFPESIKAWPFPDVLECCLVLLLIRSHFPGCLAQEMQQQAQELLQKYGNTKTYRRHCQTFCM	2 and 4	
G5C L1468D/L1469D double mutant (domain or fragment, human, UniProt Q8TEQ6 841-1508, looked up, Gemin5, human, residues 841-1508 with L1468D and L1469D; also called M1; source: E. coli BL21 (DE3), purified in the same way as wild-type G5C; not shown: His6, N-terminal, cleaved) KKRKARSLLPLSTSLDHRSKEELHQDCLVLATAKHSRELNEDVSADVEERFHLGLFTDRATLYRMIDIEGKGHLENGHPELFHQLMLWKGDLKGVLQTAAERGELTDNLVAMAPAAGYHVWLWAVEAFAKQLCFQDQYVKAASHLLSIHKVYEAVELLKSNHFYREAIAIAKARLRPEDPVLKDLYLSWGTVLERDGHYAVAAKCYLGATCAYDAAKVLAKKGDAASLRTAAELAAIVGEDELSASLALRCAQELLLANNWVGAQEALQLHESLQGQRLVFCLLELLSRHLEEKQLSEGKSSSSYHTWNTGTEGPFVERVTAVWKSIFSLDTPEQYQEAFQKLQNIKYPSATNNTPAKQLLLHICHDLTLAVLSQQMASWDEAVQALLRAVVRSYDSGSFTIMQEVYSAFLPDGCDHLRDKLGDHQSPATPAFKSLEAFFLYGRLYEFWWSLSRPCPNSSVWVRAGHRTLSVEPSQQLDTASTEETDPETSQPEPNRPSELDLRLTEEGERMLSTFKELFSEKHASLQNSQRTVAEVQETLAEMIRQHQKSQLCKSTANGPDKNEPEVEAEQPLCSSQSQCKEEKNEPLSLPELTKRLTEANQRMAKFPESIKAWPFPDVLECCLVLDDIRSHFPGCLAQEMQQQAQELLQKYGNTKTYRRHCQTFCM	2 and 4	
G5C R1035A/K1061A/K1062A/R1090A quadruple mutant (domain or fragment, human, UniProt Q8TEQ6 841-1508, looked up, Gemin5, human, residues 841-1508 with R1035A, K1061A, K1062A and R1090A; also called M4; source: E. coli BL21 (DE3), purified in the same way as wild-type G5C; not shown: His6, N-terminal, cleaved; copies: 10) KKRKARSLLPLSTSLDHRSKEELHQDCLVLATAKHSRELNEDVSADVEERFHLGLFTDRATLYRMIDIEGKGHLENGHPELFHQLMLWKGDLKGVLQTAAERGELTDNLVAMAPAAGYHVWLWAVEAFAKQLCFQDQYVKAASHLLSIHKVYEAVELLKSNHFYREAIAIAKARLRPEDPVLKDLYLSWGTVLEADGHYAVAAKCYLGATCAYDAAKVLAAAGDAASLRTAAELAAIVGEDELSASLALACAQELLLANNWVGAQEALQLHESLQGQRLVFCLLELLSRHLEEKQLSEGKSSSSYHTWNTGTEGPFVERVTAVWKSIFSLDTPEQYQEAFQKLQNIKYPSATNNTPAKQLLLHICHDLTLAVLSQQMASWDEAVQALLRAVVRSYDSGSFTIMQEVYSAFLPDGCDHLRDKLGDHQSPATPAFKSLEAFFLYGRLYEFWWSLSRPCPNSSVWVRAGHRTLSVEPSQQLDTASTEETDPETSQPEPNRPSELDLRLTEEGERMLSTFKELFSEKHASLQNSQRTVAEVQETLAEMIRQHQKSQLCKSTANGPDKNEPEVEAEQPLCSSQSQCKEEKNEPLSLPELTKRLTEANQRMAKFPESIKAWPFPDVLECCLVLLLIRSHFPGCLAQEMQQQAQELLQKYGNTKTYRRHCQTFCM	10	
Gemin5 C-terminal fragment (Gemin5 841-1508), wild type (domain or fragment, human, UniProt Q8TEQ6 841-1508, looked up, Gemin5, human, residues 841-1508 of the 1508-residue protein; Homodecamer (dimer of pentamers) by cryo-EM and static light scattering; also called G5C; G5C wild type; source: E. coli BL21 (DE3), purified (Ni-NTA, TEV cleavage, Superdex 200 gel filtration, mono Q); not shown: His6, N-terminal, cleaved; copies: 10) KKRKARSLLPLSTSLDHRSKEELHQDCLVLATAKHSRELNEDVSADVEERFHLGLFTDRATLYRMIDIEGKGHLENGHPELFHQLMLWKGDLKGVLQTAAERGELTDNLVAMAPAAGYHVWLWAVEAFAKQLCFQDQYVKAASHLLSIHKVYEAVELLKSNHFYREAIAIAKARLRPEDPVLKDLYLSWGTVLERDGHYAVAAKCYLGATCAYDAAKVLAKKGDAASLRTAAELAAIVGEDELSASLALRCAQELLLANNWVGAQEALQLHESLQGQRLVFCLLELLSRHLEEKQLSEGKSSSSYHTWNTGTEGPFVERVTAVWKSIFSLDTPEQYQEAFQKLQNIKYPSATNNTPAKQLLLHICHDLTLAVLSQQMASWDEAVQALLRAVVRSYDSGSFTIMQEVYSAFLPDGCDHLRDKLGDHQSPATPAFKSLEAFFLYGRLYEFWWSLSRPCPNSSVWVRAGHRTLSVEPSQQLDTASTEETDPETSQPEPNRPSELDLRLTEEGERMLSTFKELFSEKHASLQNSQRTVAEVQETLAEMIRQHQKSQLCKSTANGPDKNEPEVEAEQPLCSSQSQCKEEKNEPLSLPELTKRLTEANQRMAKFPESIKAWPFPDVLECCLVLLLIRSHFPGCLAQEMQQQAQELLQKYGNTKTYRRHCQTFCM		stoichiometry N [3]: 10
